The values below come from patent US20180237511A1 (Sanofi, published 2018).

Where a chain is given by its changes, count along the chain named.

Assay [1] has as its target T1, human laminin G-like 5 domain of laminin-2 (hLG-5) (human, UniProt P24043 2936-3122, soluble biotinylated protein (Avi tag)).
T1 construct: The construct used for the crystal structure with C21 Fab is not described; the same entry is used; also called human LG-5; human LG5; not shown: N-terminal Avi and HPC4 tags
T1 sequence: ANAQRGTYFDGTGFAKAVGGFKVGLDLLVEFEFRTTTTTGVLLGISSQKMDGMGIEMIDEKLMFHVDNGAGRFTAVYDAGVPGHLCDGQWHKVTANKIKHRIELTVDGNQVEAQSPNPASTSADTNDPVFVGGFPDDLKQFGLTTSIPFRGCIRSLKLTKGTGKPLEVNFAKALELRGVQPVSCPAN
As to the kind of experiment: SPR (Biacore) kinetics; mAb immobilized, hLG-5 in flow. (SPR reads the build-up and loss of mass on a sensor chip optically.)

For assay [2], the target named is T2, human beta-dystroglycan extracellular domain (soluble) (human, UniProt Q14118 654-749).
T2 construct: extracellular domain; The expression construct of soluble human beta-DG is not described (only the mouse one); also called hBeta-DG; hbeta-DG
T2 sequence (looked up): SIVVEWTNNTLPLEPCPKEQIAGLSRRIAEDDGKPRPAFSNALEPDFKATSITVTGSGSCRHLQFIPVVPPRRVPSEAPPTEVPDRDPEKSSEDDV
As to the kind of experiment: sequential SPR (Biacore T100): antibody captured on a Protein G chip, 200 nM human LG4/5 for 60 s, then 200 nM human beta-DG for 60 s. The protocol:
For sequential dual binding of antigens to trivalent antibodies, a Series S Sensor Protein G chip (GE Healthcare, 29179315) was used with a T100 Biacore. This chip was used to immobilize trivalent or parental antibody to the surface (60 seconds with 5 ug/mL of antibody). After capture, 200 nM of LG4/5 was flowed over the chip for 60 seconds followed by 200 nM of beta-DG for 60 seconds. Binding to the trivalent antibody was observed by the change of mass detected on the chip in relative units (RU).
Additionally, surface plasmon resonance was performed to show sequential binding of the human laminin-2 and beta-DG antigens (FIG. 1C).

For assay [3], the target named is T3, human laminin G-like 4 and 5 domains of laminin-2 (hLG-4/5), soluble (human, UniProt P24043 2729-3122, biotinylated in the ELISA of Example 6).
T3 construct: range 2729-3122; also called human LG-4/5; hLG4/LG5; not shown: Avi tag and HPC4 tag left after TEV cleavage of the N-terminal mIgG2a fusion partner
T3 sequence (looked up): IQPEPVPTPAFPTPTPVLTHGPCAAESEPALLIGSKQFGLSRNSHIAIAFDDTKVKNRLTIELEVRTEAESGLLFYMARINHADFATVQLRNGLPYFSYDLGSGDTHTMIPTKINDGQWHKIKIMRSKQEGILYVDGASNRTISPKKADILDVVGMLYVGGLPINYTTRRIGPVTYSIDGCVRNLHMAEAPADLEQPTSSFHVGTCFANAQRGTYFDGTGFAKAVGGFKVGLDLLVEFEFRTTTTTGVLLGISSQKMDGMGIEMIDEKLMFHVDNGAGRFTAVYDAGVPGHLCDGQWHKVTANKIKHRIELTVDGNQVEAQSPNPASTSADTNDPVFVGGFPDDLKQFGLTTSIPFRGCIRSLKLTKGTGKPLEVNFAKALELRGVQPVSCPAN
As to the kind of experiment: SPR, antibody on Protein G chip, LG4/5 in flow, 1:1 model (table title says beta-DG; paragraph 445 says human laminin-2). As to the method: (§1) Data was evaluated with a 1:1 binding model using the BIAevaluation software.
(§2) SPR was used as described above to analyze the kinetics of triAb binding to laminin-2 (Table N) or beta-DG (Table O).

The target of assay [4] is T2, human beta-dystroglycan extracellular …. As to the kind of experiment: SPR, antibody on Protein G chip, beta-DG in flow, 1:1 model (table title says laminin-2; paragraph 445 says human beta-DG). The protocol: as §1, §2

B1: anti-laminin-2 (anti-LG-5) monoclonal antibody clone AN01 (antibody, V domains shown)
VH: EVQLQQSGPELVKPGASVKMSCKASGYTFTSYNIHWVKQKPGQGLEWIGYINPYNDGTKYSEKFKGKATLTSDRSSSTAYMEVSSLTSEDSAVYYCAIYGNSYWGQGSTLTVSS
VL: DIVMTQAAPSIPVTPGESVSISCRSSKSLLHSNGNTYLYWFLQRPGQSPQRLIYYMSNLDSGVPDRFSGRGSGTDFTLRISRVEAEDVGVYYCMQGLEYPYTFGGGTKLEIK
notes: tested as immobilized mAb
As to B1, in assay [1], the dissociation constant Kd was 9.24 nM, the koff was 0.000915 s⁻¹ and the kon was determined as 99000 M⁻¹ s⁻¹.

B2: humanized anti-laminin-2 antibody C3_Hu10 (antibody, V domains shown)
VH: EVQLVESGGGLVKPGGSLRLSCAASGFTFSSYTMSWVRQAPGKGLEWVASISSSGSNTYYPDSVKGRFTISRDNAKNNLYLQMNSLRAEDTALYYCARFDYGSSLDSWGQGTLLTVSS
VL: EIVLTQSPDFLSVTPKEKVTLTCRASQSISNNLHWYQQKSDQSPKLLIKYASQSISGIPSRFSGSGSGTDFTLTINSVEAEDAATYFCQQSKSWPRTFGGGTKLEIK
notes: Called monovalent anti-LG4/5 antibody
Take B2: the binding result in assay [2] is recorded as “no binding (tested: 200 nM)”.

B3: humanized anti-laminin-2 antibody C21_Hu21 (antibody, V domains shown)
VH: B2 VH with K13Q, S50T, S56D, A75S, N78T, N84S, L113T
VL: B2 VL with K16G, N32Y, I58V, N76S, A83F
notes: as for B2
In the case of B3, in assay [3], the dissociation constant Kd was 8.99 nM, the koff stood at 0.00144 s⁻¹ and the kon amounted to 160000 M⁻¹ s⁻¹. Further, the binding result in assay [2] is recorded as “no binding (tested: 200 nM)”.

B4: humanized anti-laminin-2 antibody C3_Hu11 (antibody, V domains shown)
VH: B2 VH
VL: B2 VL with S30G
notes: as for B2
In assay [3], B4 yielded a Kd of 9.83 nM, a koff of 0.00117 s⁻¹ and a kon of 119000 M⁻¹ s⁻¹. Moreover, in assay [2], the binding result was “no binding (tested: 200 nM)”.

B5: humanized anti-laminin-2 antibody C21_Hu11 (antibody, V domains shown)
VH: B2 VH
VL: B2 VL with T22S, N32Y, T74S
notes: as for B2
As for B5, the binding result in assay [2] is given as “no binding (tested: 200 nM)”.

B6: humanized anti-beta-DG antibody AS30SS_Hu6 (antibody, V domains shown)
VH: QVQLVQSGAEVVKPGSSVKVSCEASGFTFTDSVITWVRQRPGQGLEWIGEIYPGSGNFYYNEKFQGRVTITADKSTSTAYMELSSLRSEDTAVYFCAMRRSSWGQGTLVTVSS
VL: DVVMTQTPLSLSVTPGQPASISCKSSQTIVHSNSKTYLEWYLQKPGQSPQLLIYKVSSRFSGVPDRFSGSGSGTDFTLKISRVEAEDVGVYYCFQGSHVPLTFGQGTKLEIK
notes: also called AS30_Hu6; AS30 Hu6
In assay [4], B6 registered an equilibrium dissociation constant (Kd) of 0.796 nM, a koff of 0.00202 s⁻¹ and an association rate constant (kon) of 2.54e+06 M⁻¹ s⁻¹.

B7: triAb 3437 (bispecific antibody)
light 1: EIVLTQSPDFLSVTPKEKVTLTCRASQSIGNNLHWYQQKSDQSPKLLIKYASQSISGIPSRFSGSGSGTDFTLTINSVEAEDAATYFCQQSKSWPRTFGGGTKLEIKDKTHTEIVLTQSPDFLSVTPKEKVTLSCRASQSISNYLHWYQQKSDQSPKLLIKYASQSISGIPSRFSGSGSGTDFTLSINSVEAEDAATYFCQQSKSWPRTFGGGTKLEIKDKTHTRTVAAPSVFIFPPSDEQLKSGTASVVCLLNNFYPREAKVQWKVDNALQSGNSQESVTEQDSKDSTYSLSSTLTLSKADYEKHKVYACEVTHQGLSSPVTKSFNRGEC
heavy 1: EVQLVESGGGLVKPGGSLRLSCAASGFTFSSYTMSWVRQAPGKGLEWVASISSSGSNTYYPDSVKGRFTISRDNAKNNLYLQMNSLRAEDTALYYCARFDYGSSLDSWGQGTLLTVSSDKTHTEVQLVESGGGLVKPGGSLRLSCAASGFTFSSYTMSWVRQAPGKGLEWVASISSSGSNTYYPDSVKGRFTISRDNAKNNLYLQMNSLRAEDTALYYCARFDYGSSLDSWGQGTLLTVSSDKTHTASTKGPSVFPLAPSSKSTSGGTAALGCLVKDYFPEPVTVSWNSGALTSGVHTFPAVLQSSGLYSLSSVVTVPSSSLGTQTYICNVNHKPSNTKVDKKVEPKSCDKTHTCPPCPAPELLGGPSVFLFPPKPKDTLYITREPEVTCVVVDVSHEDPEVKFNWYVDGVEVHNAKTKPREEQYNNASRVVSVLTVLHQDWLNGKEYKCKVSNKALPAPIEKTISKAKGQPREPQVYTLPPCRDELTKNQVSLWCLVKGFYPSDIAVEWESNGQPENNYKTTPPVLDSDGSFFLYSKLTVDKSRWQQGNVFSCSVMHEALHNHYTQKSLSLSPG
heavy 2: QVQLVQSGAEVVKPGSSVKVSCEASGFTFTDSVITWVRQRPGQGLEWIGEIYPGSGNFYYNEKFQGRVTITADKSTSTAYMELSSLRSEDTAVYFCAMRRSSWGQGTLVTVSSASTKGPSVFPLAPSSKSTSGGTAALGCLVKDYFPEPVTVSWNSGALTSGVHTFPAVLQSSGLYSLSSVVTVPSSSLGTQTYICNVNHKPSNTKVDKKVEPKSCDKTHTCPPCPAPELLGGPSVFLFPPKPKDTLYITREPEVTCVVVDVSHEDPEVKFNWYVDGVEVHNAKTKPREEQYNNASRVVSVLTVLHQDWLNGKEYKCKVSNKALPAPIEKTISKAKGQPREPQVCTLPPSRDELTKNQVSLSCAVKGFYPSDIAVEWESNGQPENNYKTTPPVLDSDGSFFLVSKLTVDKSRWQQGNVFSCSVMHEALHNRFTQKSLSLSPG
light 2: DVVMTQTPLSLSVTPGQPASISCKSSQTIVHSNSKTYLEWYLQKPGQSPQLLIYKVSSRFSGVPDRFSGSGSGTDFTLKISRVEAEDVGVYYCFQGSHVPLTFGQGTKLEIKRTVAAPSVFIFPPSDEQLKSGTASVVCLLNNFYPREAKVQWKVDNALQSGNSQESVTEQDSKDSTYSLSSTLTLSKADYEKHKVYACEVTHQGLSSPVTKSFNRGEC
notes: Trivalent: CODV arm VH1/VL1 C21_Hu11, VH2/VL2 C3_Hu11
In assay [4], B7 came in with a Kd of 1.87 nM, an off-rate (koff) of 0.0045 s⁻¹ and a kon of 2.41e+06 M⁻¹ s⁻¹.

B8: triAb 3429 (bispecific antibody)
light 1: B7 light 1 with K16G, G30S, N32Y, I58V, N76S, A83F, S134T, S142G, Y144N, S186T
heavy 1: B7 heavy 1 with K136Q, S173T, S179D, A198S, N201T, N207S, L236T
heavy 2: B7 heavy 2
light 2: B7 light 2
notes: Trivalent: CODV arm VH1/VL1 C3_Hu11, VH2/VL2 C21_Hu21
In assay [4], B8 came in with a Kd of 1.9 nM, an off-rate (koff) of 0.00404 s⁻¹ and a kon of 2.13e+06 M⁻¹ s⁻¹.

B9: triAb 3439 (bispecific antibody)
light 1: B7 light 1 with G30S, K128G, S134T, I170V, S186T, N188S, A195F
heavy 1: B7 heavy 1 with K13Q, S50T, S56D, A75S, N78T, N84S, L113T
heavy 2: B7 heavy 2
light 2: B7 light 2
notes: Trivalent: CODV arm VH1/VL1 C21_Hu21, VH2/VL2 C3_Hu10
On to B9, for which, in assay [4], the Kd stood at 1.3 nM, the koff stood at 0.004 s⁻¹ and the kon came to 3.07e+06 M⁻¹ s⁻¹.

In general, Kd refers to the concentration at which binding is half-saturated. Lower therefore signals a tighter complex. Broadly, the koff is a measure of how fast the partners let go of each other. The kon is a measure of how fast the partners come together. Low readings indicate slower complex formation, high ones faster complex formation.
